Columns and labels:
human CLDN18.2 (human) [1] = test: competition FACS on HEK293/hCLDN18.2 cells; competitor 200 nM biotinylated PR004549; isotype is the reference of the formula
human CLDN18.2 (human) [2] = test: competition FACS on HEK293/hCLDN18.2 cells; competitor 10 nM biotinylated PR000400; isotype is the reference of the formula
[3] = target: Biotinylated murine CD3E&D (murine) (UniProt P22646); test: BLI (Octet), biotinylated CD3 on SA sensor, 1:1 global fit
Biotinylated murine CD3E&D (murine), sequence (P22646 22-108, chain 1 of 2): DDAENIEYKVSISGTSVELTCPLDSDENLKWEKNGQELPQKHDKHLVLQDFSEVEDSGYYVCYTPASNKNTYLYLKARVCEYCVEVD
Biotinylated murine CD3E&D (murine), sequence (P04235 22-105, chain 2 of 2, further chain): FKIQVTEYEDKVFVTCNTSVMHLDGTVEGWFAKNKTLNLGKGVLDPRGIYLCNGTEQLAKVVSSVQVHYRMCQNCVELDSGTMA

Substance | Maximum inhibition rate (%) (human CLDN18.2 (human) [1]) | Maximum inhibition rate (%) (human CLDN18.2 (human) [2]) | Kd [3] | koff [3] | kon [3]
Iso hIgG1 (CrownBio, C0001-4) (antibody) | 0% | 0% | – | – | –
anti-CD3e 48-2B (santa cruz biotechnology, SC-1174) (antibody) | – | – | 0.171 nM | 0.000137 s⁻¹ | 803000 M⁻¹ s⁻¹

From patent publication US20250340631A1
